B1: library; numbered along this chain (parent)
chain: MAAAGGARLLRAASAVLGGPAGRWLHHAGSRAGSSGLLRNRGPGGSAEASRSLSVSARARSSSEDKITVHFINRDGETLTTKGKVGDSLLDVVVENNLDIDGFGACEGTLACSTCHLIFEDHIYEKLDAITDEENDMLDLAYGLTDRSRLGCQICLTKSMDNMTVRVPETVADARQSIDVGKTS

Variants of: B1
Experiment: scaled log2 fold change in cell abundance, elesclomol vs control (0 = silent mean, 1 = nonsense mean) (scaled log2 ratio); higher = higher viability under elesclomol (loss of FDX1 cuproptosis function)
Details: glucose 10 mM
[1] = with ABC1 FDX1 KO, elesclomol 5 nM, 14 days
[2] = with HEK293T FDX1 KO, elesclomol 40 nM, 11 days
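Further: variant abundance is its share of total variant reads in each endpoint sample, from next-generation sequencing of the integrated ORF PCR-amplified out of genomic DNA.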

In the case of MAAAGGARLLRAASAVLGGPAGRWLHHAGSRAGSSGLLRNRGPGGSAEASRSLSVSARARSSSEDKITVHFINRDGETLTTKGKVGDSLLDVVVENNLDIDGFGACEGTLACSTCGLIFEDHIYEKLDAITDEENDMLDLAYGLTDRSRLGCQICLTKSMDNMTVRVPETVADARQSIDVGKTS, the “scaled log2 fold change” value [1] is reported as 0.0557 and the “scaled log2 fold change” value [2] is reported as -0.405.

In the case of MAAAGGARLLRAASAVLGGPAGRWLHHAGSRAGSSGLLRNRGPGGSAEASRSLSVSARARSSSEDKITVHFINRDGETLTTKGKVGDSLLDVVVENNLDIDGFGACEGTLACSTCFLIFEDHIYEKLDAITDEENDMLDLAYGLTDRSRLGCQICLTKSMDNMTVRVPETVADARQSIDVGKTS, the “scaled log2 fold change” value [1] is reported as 0.69 and the “scaled log2 fold change” value [2] is reported as 0.87.

MAAAGGARLLRAASAVLGGPAGRWLHHAGSRAGSSGLLRNRGPGGSAEASRSLSVSARARSSSEDKITVHFINRDGETLTTKGKVGDSLLDVVVENNLDIDGFGACEGTLACSTCLLIFEDHIYEKLDAITDEENDMLDLAYGLTDRSRLGCQICLTKSMDNMTVRVPETVADARQSIDVGKTS was tested, and the “scaled log2 fold change” value [1] was -0.55 and the “scaled log2 fold change” value [2] was -0.291.

With MAAAGGARLLRAASAVLGGPAGRWLHHAGSRAGSSGLLRNRGPGGSAEASRSLSVSARARSSSEDKITVHFINRDGETLTTKGKVGDSLLDVVVENNLDIDGFGACEGTLACSTCMLIFEDHIYEKLDAITDEENDMLDLAYGLTDRSRLGCQICLTKSMDNMTVRVPETVADARQSIDVGKTS the “scaled log2 fold change” value [1] was -1.26 and the “scaled log2 fold change” value [2] was 0.245.

With MAAAGGARLLRAASAVLGGPAGRWLHHAGSRAGSSGLLRNRGPGGSAEASRSLSVSARARSSSEDKITVHFINRDGETLTTKGKVGDSLLDVVVENNLDIDGFGACEGTLACSTCDLIFEDHIYEKLDAITDEENDMLDLAYGLTDRSRLGCQICLTKSMDNMTVRVPETVADARQSIDVGKTS the “scaled log2 fold change” value [1] was 0.16 and the “scaled log2 fold change” value [2] was -0.115.

For MAAAGGARLLRAASAVLGGPAGRWLHHAGSRAGSSGLLRNRGPGGSAEASRSLSVSARARSSSEDKITVHFINRDGETLTTKGKVGDSLLDVVVENNLDIDGFGACEGTLACSTCILIFEDHIYEKLDAITDEENDMLDLAYGLTDRSRLGCQICLTKSMDNMTVRVPETVADARQSIDVGKTS, the “scaled log2 fold change” value [1] was -1.23 and the “scaled log2 fold change” value [2] was 0.162.

For MAAAGGARLLRAASAVLGGPAGRWLHHAGSRAGSSGLLRNRGPGGSAEASRSLSVSARARSSSEDKITVHFINRDGETLTTKGKVGDSLLDVVVENNLDIDGFGACEGTLACSTCKLIFEDHIYEKLDAITDEENDMLDLAYGLTDRSRLGCQICLTKSMDNMTVRVPETVADARQSIDVGKTS, the “scaled log2 fold change” value [1] was 0.464 and the “scaled log2 fold change” value [2] was -0.0313.

MAAAGGARLLRAASAVLGGPAGRWLHHAGSRAGSSGLLRNRGPGGSAEASRSLSVSARARSSSEDKITVHFINRDGETLTTKGKVGDSLLDVVVENNLDIDGFGACEGTLACSTCNLIFEDHIYEKLDAITDEENDMLDLAYGLTDRSRLGCQICLTKSMDNMTVRVPETVADARQSIDVGKTS was tested, and the “scaled log2 fold change” value [1] was -0.0564 and the “scaled log2 fold change” value [2] was -0.554.

MAAAGGARLLRAASAVLGGPAGRWLHHAGSRAGSSGLLRNRGPGGSAEASRSLSVSARARSSSEDKITVHFINRDGETLTTKGKVGDSLLDVVVENNLDIDGFGACEGTLACSTCELIFEDHIYEKLDAITDEENDMLDLAYGLTDRSRLGCQICLTKSMDNMTVRVPETVADARQSIDVGKTS was tested, and the “scaled log2 fold change” value [1] was -0.124 and the “scaled log2 fold change” value [2] was 0.106.

MAAAGGARLLRAASAVLGGPAGRWLHHAGSRAGSSGLLRNRGPGGSAEASRSLSVSARARSSSEDKITVHFINRDGETLTTKGKVGDSLLDVVVENNLDIDGFGACEGTLACSTCALIFEDHIYEKLDAITDEENDMLDLAYGLTDRSRLGCQICLTKSMDNMTVRVPETVADARQSIDVGKTS was tested, and the “scaled log2 fold change” value [1] was 0.129 and the “scaled log2 fold change” value [2] was 0.404.

With MAAAGGARLLRAASAVLGGPAGRWLHHAGSRAGSSGLLRNRGPGGSAEASRSLSVSARARSSSEDKITVHFINRDGETLTTKGKVGDSLLDVVVENNLDIDGFGACEGTLACSTCCLIFEDHIYEKLDAITDEENDMLDLAYGLTDRSRLGCQICLTKSMDNMTVRVPETVADARQSIDVGKTS the “scaled log2 fold change” value [1] was 0.0577 and the “scaled log2 fold change” value [2] was 0.973.

In the case of MAAAGGARLLRAASAVLGGPAGRWLHHAGSRAGSSGLLRNRGPGGSAEASRSLSVSARARSSSEDKITVHFINRDGETLTTKGKVGDSLLDVVVENNLDIDGFGACEGTLACSTVHLIFEDHIYEKLDAITDEENDMLDLAYGLTDRSRLGCQICLTKSMDNMTVRVPETVADARQSIDVGKTS, the “scaled log2 fold change” value [1] is reported as 1.07 and the “scaled log2 fold change” value [2] is reported as 1.37.

In the case of MAAAGGARLLRAASAVLGGPAGRWLHHAGSRAGSSGLLRNRGPGGSAEASRSLSVSARARSSSEDKITVHFINRDGETLTTKGKVGDSLLDVVVENNLDIDGFGACEGTLACSTYHLIFEDHIYEKLDAITDEENDMLDLAYGLTDRSRLGCQICLTKSMDNMTVRVPETVADARQSIDVGKTS, the “scaled log2 fold change” value [1] is reported as 1.1 and the “scaled log2 fold change” value [2] is reported as 0.829.

In the case of MAAAGGARLLRAASAVLGGPAGRWLHHAGSRAGSSGLLRNRGPGGSAEASRSLSVSARARSSSEDKITVHFINRDGETLTTKGKVGDSLLDVVVENNLDIDGFGACEGTLACSTTHLIFEDHIYEKLDAITDEENDMLDLAYGLTDRSRLGCQICLTKSMDNMTVRVPETVADARQSIDVGKTS, the “scaled log2 fold change” value [1] is reported as 1.13 and the “scaled log2 fold change” value [2] is reported as 0.783.

In the case of MAAAGGARLLRAASAVLGGPAGRWLHHAGSRAGSSGLLRNRGPGGSAEASRSLSVSARARSSSEDKITVHFINRDGETLTTKGKVGDSLLDVVVENNLDIDGFGACEGTLACSTSHLIFEDHIYEKLDAITDEENDMLDLAYGLTDRSRLGCQICLTKSMDNMTVRVPETVADARQSIDVGKTS, the “scaled log2 fold change” value [1] is reported as 1.09 and the “scaled log2 fold change” value [2] is reported as 1.13.

MAAAGGARLLRAASAVLGGPAGRWLHHAGSRAGSSGLLRNRGPGGSAEASRSLSVSARARSSSEDKITVHFINRDGETLTTKGKVGDSLLDVVVENNLDIDGFGACEGTLACSTWHLIFEDHIYEKLDAITDEENDMLDLAYGLTDRSRLGCQICLTKSMDNMTVRVPETVADARQSIDVGKTS was tested, and the “scaled log2 fold change” value [1] was 1.1 and the “scaled log2 fold change” value [2] was 1.36.
